{
  "source": "a protein production outcome set (Wang et al. 2014)",
  "assay": "label from the status in PepcDB records",
  "data": [
    {"sequence": "MKNKSYYFLTIIRYAVYLLIGMCAVFYGELKNTEMYYFIVFFLMYIIVTQFRIYYLRNRKYVSVSMVVDLVLVCFMYSYVRNFSFLFLFISVLDSSIMLSKTQAYASGIICSVVIIIQNVKIPFSLKAGTNLINILFSILLIFTLVFIGDSFREEQKRKIEAQGLYDRLRESEEKLRGAYEKLERYSETVEELSILRERNRISREIHDSVGHTLSAVLMQLQALLYLIKSDKEESLKTVEEMTGFVRGGIENVRRTVRELKPTDFDRFEGVFAIEEMIRKYKKLTSADIRFILSKEKRSLSSDESFISYRVVQEALNNAIRHGKASLVEVSMQFNQDRLYIRIKDNGVGTDGIKKGFGMTGMEERVKKLGGNIEFYSERDKGFEVTVNLPKSSEEKNSIINY", "values": [
      {"measurement": "protein production", "result": "failed"}
    ]},
    {"sequence": "MKNKTYYLSIIFTSLVCLFLFTKALGFILWINGAPIDKWVAWVGLFAIPIFIYYSFPGRSLKKTQKIVTIVIIIVQIIWLKWAINQSKYYVYVNSNNILPSPYIIQETPNSNTPISLGQRLLTNYTFYKSIHSYLYVRENVTKSDRGIVDWIKHFDSEIKEEEDDGRIYIETYKGKLFFK", "values": [
      {"measurement": "protein production", "result": "failed"}
    ]},
    {"sequence": "MKNLKRRVAVVTALALVAALTYVLWPRSESVHVTAYFPRTVGIYPGSDVRVLGVRIGEVEKITPEGDRVRVELKYDEGRRVPADSKAAIINSSVVSDRYVQLLPVYRKGPVLRNGAVIPESRTAVPVELDRVFGSLHTTADALGPQGANKDGSLSRLLGVSADNLDGQGENLNRTVEDLSQAVTTLSDGRKDLFGTVRNLQVFTAALSADDKSVRSFNTGLAEVAGQLAGERKDLADALKNLGTALGDVSAFVKNNKRSLNSNVKGLSKVTKVLVTQRAALAELLEVAPTGLSNLNNAYNPSAGTLDTRNNAQQAQDPAALMCSVLKTTGDEGGKNPDCKELKKLFDSLPKVPQGSAVTGTVDRTLGGILGASA", "values": [
      {"measurement": "protein production", "result": "failed"}
    ]},
    {"sequence": "MKNLTSIRPNTSRPARLAALKQSFQDWNNTSDVMARLARRLSTTLSLEAQLSILAEEMTDMVPFDSLNYRHRIARQDFIFSTGMGGPHRCEYRLSLEGHQYGTLTLHRRQRFSEEELTGIEMMLSGAICHIRNACQFIAIEQTALTDSLTGIGNKRALDEALQRASAMADRHGAPWSLILCDLDHFKLINDNHGHVVGDHILARTAEKLEQALRNSDTVYRFGGEEFAILLPHTNEQEARDVADRIRGAIESIRVDGGETPLTVTASCGVAMHLTDEQPEQWLARADEALYRAKAAGRNCTRVFASIS", "values": [
      {"measurement": "protein production", "result": "failed"}
    ]},
    {"sequence": "MKNNDLTTYGEYLEKLSPKHGREKVFNDFLQIVVCCLSMGRKEELYFKTIKPYDKTELDLFSQAFAALVMQMDRQPLVDPFGDYFQEFLSNAQNGQFFTPFGVCELMNQLITAPKVSDQPKQGDRRVLDPACGSGRLLLSAAQKDRALTFVGIDISYTCCLMTIINLCLNSLNGEVLHMNALTDQYWHRWLIIVDSVTKIPTVYEVEAGIINQPPACADDLKPLPVTGIIQPVKNMIPANFVRYTPKCLEHHHHHH", "values": [
      {"measurement": "protein production", "result": "failed"}
    ]},
    {"sequence": "MKNNPLISIYMPTWNRQQLAIRAIKSVLRQDYSNWEMIIVDDCSTSWEQLQQYVTALNDPRITYIHNDINSGACAVRNQAIMLAQGEYITGIDDDDEWTPNRLSVFLAHKQQLVTHAFLYANDYVCQGEVYSQPASLPLYPKSPYSRRLFYKRNIIGNQVFTWAWRFKECLFDTELKAAQDYDIFLRMVVEYGEPWKVEEATQILHINHGEMQITSSPKKFSGYFHFYRKHKDKFDRASKKYQLFTLYQIRNKRMTWRTLLTLLSVRNGKRLADGIRGRLEHHHHHH", "values": [
      {"measurement": "protein production", "result": "not failed"}
    ]},
    {"sequence": "MKNQLELIAESYDKGIDYGRRGISLYDDLPEYITNNPDYIIYKKTTESIEPSVYSGYKEIREYLSPTTNMKFIDLGCCLNLMFNGYDQWASTYHGVDISSKTIELLNEFSTNNKLHIGALICGSIHETPFDANYFDIGACIGVLEYYKKDFVEKALIEAHRIIKPGGKLVLDIPNIVSPACRGMILLEEHAGRTDQFDMLPLDFENMLCNYFEIEKVEKANAWAMFQYFLSCKK", "values": [
      {"measurement": "protein production", "result": "failed"}
    ]},
    {"sequence": "MKNQLIDRLTRYTTIDTQSDPKSTTTPSTEKQWDLLHLLEKELQQLGLPTDLDENGYLFATLESNIDVDVPTVGFLAHVDTSPDFNASNVKPQIIENYDGKPYKLGNTKRVLDPKVFPELNSLVGHTLMVTDGTSLLGADDKAGIVEIMEAICYLQEHPEIKHGTIRIGFTPDEEIGRGPHKFDVDRFNADFAYTMDGSQYGELQYESFNAAEAVITCHGVNVHPGSAKNAMVNAIRLGEQFDSLLPDSEVPERTEGYEGFYHLMNFEGTVEKATLQYIIRDHDKKQFELRKKRILEIRDDINAHFENYPVKVDISDQYFNMAEKILPLPHIIDIPKRVFAKLDIPANTEPIRGGTDGSQLSFMGLPTPNIFTGCGNFHGPYEYASIDVMEKAVQVIIGIVEDIAENH", "values": [
      {"measurement": "protein production", "result": "failed"}
    ]},
    {"sequence": "MKNRFAMMLMALLPVLVACQAKDGSADTVQSAVPAPSAPPSSSTATTTPTTPPPESARPVEASRVPSGPKPVAGTDYVVIQDGQQFQPVSGKVEVVEVFGYICPACFQFQPQIALWKAGLASDVNFVYVPAVFGGPWDDYARAFYAAETLNLQEKTHQQLYKAIHVDRTLKGERGRDTVQDIANFYAKFGVNPEQFVNTMSSFGISAKVNRAKQFAKHSQVTGTPSLIINGKYLVKGRTYDDMLRIADHLIEGERKVLGK", "values": [
      {"measurement": "protein production", "result": "failed"}
    ]},
    {"sequence": "MKNRRTRWYRSLALRLLFIFWALLSVTAASGYLLAVWNKPKAELKPLEPEIYQTLQPLLSDALTFHSLQPGRLIAGDYRVAAQLSVQGSEKLLMDEMLRVSHGSTLLRMLGQESPQQIPLDERLLMGPFELDGNKILVTKPLGIEEQVDRERLEAESTRARILTLMVGSGLLAVLLGIWLIRPIRRMILAMREVADGSATPELKRLPKRGDEIGELARALSQGAVDLATSRDAQRRLLSDVSHELRSPMARMQVALDLADCNEDDPNWQQLRRDTERLSVIIERILSLSRLENGLVDLNHESLDSGELVQQLINDMCYQHPEVRERLLRHGSNWPVIDTDPELLRLVLENIVRNALHYTEDNVELSCDDYGKGCHIRIRDHGPGVDESTISKLFVPFYRGDPARHHKAGVGLGLALSHRAAAVLGGELKAHNHSEGGLEVVLDLPKSQPEQKE", "values": [
      {"measurement": "protein production", "result": "failed"}
    ]},
    {"sequence": "MKNRSLTLRLISVLCLTALFVWLGSTLVAWWQVRHDVNKVFDAQQVLFAERLANSDLSTILLESSTTLNKNSQSVLKKSYDDDALAFAIFSKTGKLLFSDGRNGKDFIFNYKTGFYNANIYDDDDKWRIFWRMAANGELVIAVGQELDYREDLIEEMILGQMWIWFASLPILIIVLGWLIHKELRPIKRLSQEVQTRKSGDVSLLNTEGLPVEILPLVKNLNQFFDRTSAMLQRERRFTSDAAHELRSPLAALRIQIEVAQLAGDDVALREQALLHLTQGIDRASQLIEQLLTLSRLDNLQALETLQLLDWEAIVQSLISERYFVAEKRKITLVFEKESEPKQKQGQSILVSLMLRNLLDNAIKYCPEDTIVSVKISSSQIIIEDNGGGVEPEDLKKLGQRFYRPAGQNEKGSGLGLSIVMRIAELHGFKVRLENVVKEGRRIGLKAIISL", "values": [
      {"measurement": "protein production", "result": "failed"}
    ]},
    {"sequence": "MKNRTKSRWKKIVLGIGLFLAVLVIGLTIFIKNSTYQATDSALKISQSATQEKNYDYYTNGQKNDTALIFYPGALVAPASYSEWAQEVATKGYDVYVVHFPLNLAVLAPNAAEQIIKDHPQQNFVLAGHSLGGVMASRFVAENEQRIKGMIYLASYPDEKGALNKKNLPVLSITATNDGVLNWTSYQKAKQFLPKDTQYVSIEGGNHAGFGNYGVQKGDSKATISNEQQQTEISQLIVAWLQSRPNK", "values": [
      {"measurement": "protein production", "result": "failed"}
    ]},
    {"sequence": "MKNSFLCVGSFLLAASFFTSCTEDKDWSGGLKNSDLVFQTYLPTEGAKGTELSIRGNNFGEDISQVQVWVNEKEAEVISVTSTRIMARVAEASGSGVVKVRVGEVVYSYPDLFSYGYIRNVYTVAGNGQGTTVDGAYLQASVQWPIVMVYDKWDDAILFLQDEGEHRIRRMKDGKIETLCSTKSLVNNARSICFSLDGDTLFIGNDNANNYVANPVAVGMVTRKGGFKDLKSYIPSEKLAQPHINGIAVNPVDGSLFTYHWGRHVFRYNKATETCEYVITRDQFNELVVGLFPDADGNMQNIGGDGGYGGLAFSPDGKTLYWNGRDPYQGILKADYDLVTKKCTNLTRFAGNGVWGIIDGQGVSSRMDQPNQIAVDAEGNLLVTTVYGRTVRKITPEGYVSTYAGIGYQTGYVDGLAAEAKFNKPYGIAIDAQGNVYVGDCENWRIRVIKEE", "values": [
      {"measurement": "protein production", "result": "failed"}
    ]},
    {"sequence": "MKNYMKLIFGLGLIALVGYWPAAKTPKRVNSLFLQNVEALAGSEHVTNLGCLGDGSVDCPINHIKVEYVVQGFSLGE", "values": [
      {"measurement": "protein production", "result": "failed"}
    ]},
    {"sequence": "MKPADLTNADRIALELGHAGRNAIPYLDDDRNADRPFTLNTYRPYGYTPDRPVVVVQHGVLRNGADYRDFWIPAADRHKLLIVAPTFSDEIWPGVESYNNGRAFTAAGNPRHVDGWTYALVARVLANIRAAEIADCEQVYLFGHSAGGQFVHRLMSSQPHAPFHAVTAANPGWYTLPTFEHRFPEGLDGVGLTEDHLARLLAYPMTILAGDQDIATDDPNLPSEPAALRQGPHRYARARHYYEAGQRAAAQRGLPFGWQLQVVPGIGHDGQAMSQVCASLWFDGRMPDAAELARLAGSQSA", "values": [
      {"measurement": "protein production", "result": "not failed"}
    ]},
    {"sequence": "MKPAKVSLLHRLLQCLKQCVDCNTVNRFTAINIFVNILLISAVISFPYSAAAHGATQSGDQYSSFEELERNEDPASYRITEKNARVPMLIMAIHGGGIEPGTSEIANEVSKNYSLYLFEGLKSSGNTDLHITSTRFDEPAALAITASHQYVMSLHGYYSEDRDIKVGGTDRAKIRILVDELNRSGFAAEMLGTDDKYAGTHPNNIANKSLSGLSIQLEMSTGFRKSLFDRFTLKDRAATQNETFYRFTKLLTDFIHENYEEDGGDFPSAKIKHPLQV", "values": [
      {"measurement": "protein production", "result": "failed"}
    ]},
    {"sequence": "MKPALHTVTSAPALPAYVATGNECALFEHAWRHQLPVLLKGPTGCGKTRFVAHMAARLGLPLHTVACHDDLTAADLTGRYLLKGGDTVWTDGPLTRAVREGGICYLDEVVEARKDVTVVLHPLTDDRRILPLERTGEELAAPKSFMLVVSYNPGYQTLLKALKPSTRQRFVAIEFGFLAPEQEIAVVSAESGLPPDRVRPLVALAGRLRALRGHDLEEGVSTRLVVYCATLIAAGTPIADAVLAGMIEPLTDDSDVKAALLDVARAVIG", "values": [
      {"measurement": "protein production", "result": "failed"}
    ]},
    {"sequence": "MKPARAQGSIMLLVDVYLDKSPIQGIGVFAKHHIPMGTLIWKLDPRFDRIIDVETYEGESGPVKNYLDRYSYPDRRDPAYIVFEADDARYMNHDDEPNCDVSSPEETYALRDIAPGEELTCNYNHFFEAGFDFLGDRHL", "values": [
      {"measurement": "protein production", "result": "failed"}
    ]},
    {"sequence": "MKPENKIPVLTRLSDEMTAVVNFQQPGLPPWPADGDIETQRQYYLLERRFWNADAPSMTTRTCAVPTPYGDVTTRLYSPQPTSQATLYYLHGGGFILGNLDTHDRIMRLLARYTGCTVIGIDYSLSPQARYPQAIEETVAVCSYFSQHADEYSLNVEKIGFAGDSAGAMLALASALWLRDKHIRCGNVIAILLWYGLYGLQDSVSRRLFGGAWDGLTREDLDMYEKAYLRNDEDRESPWYCLFNNDLTRDVPPCFIASAEFDPLIDDSRLLHQTLQAHQQPCEYKMYPGTLHAFLHYSRMMTIADDALQDGARFFMARMKTPR", "values": [
      {"measurement": "protein production", "result": "not failed"}
    ]},
    {"sequence": "MKPICIIPARSGSKGLPDKNMLFLSGKPMIFHTIDAAIESGMFDKKDIFVSTDSELYREICLERGISVVMRKPELSTDQATSYDMLKDFLSDYEDNQEFVLLQVTSPLRKSWHIKEAMEYYSSHDVDNVVSFSEVEKHPSLFTTLSDEGYAIDMVGADKGYRRQDLQPLYYPNGAIFISNKETYLREKSFFTSRTYAYQMAKEFSLDVDTRDDFIHVIGHLFFDYAIREKENKVFYKEGYSRLFNREASKIILGDSKTISTSLESYHNYSQGGVTLATMLENLPNFLTANVTEAFVSIGVNDLITGYSVEEIFSNFQKLYSLLAENKIKMRLTTIAYTLFRETVNNADIEKINQWLTEFCYQNQIPLLDINRFLSKDGNLNYHLTSDGLHFTQEANDLLQSQYQLFVDEVKTLLEHHHHHH", "values": [
      {"measurement": "protein production", "result": "not failed"}
    ]},
    {"sequence": "MKPIVIKRDGSKAPFNRDRIQAAVESAAEHADQEIAIYALNVALAVELKLRDYDEVHITEIQTLVENELMQGPYKALARSYIEYRHDRDVAREKQSK", "values": [
      {"measurement": "protein production", "result": "failed"}
    ]}
  ]
}
